From US20240148887A1 (MERSANA THERAPEUTICS, published 2024)

Tests used:
[1] = target: T1, FcγRIIA (H167) (human, UniProt P12318 36-218, limits assumed); assay: BLI (Octet QKe), test article on anti-human Fab-CH1 (FAB2G) sensors, receptor in solution, 25 C, 1:1 global fit; mean of 3 experiments
T1 construct: H167 is printed as the allelic form
T1 sequence (looked up): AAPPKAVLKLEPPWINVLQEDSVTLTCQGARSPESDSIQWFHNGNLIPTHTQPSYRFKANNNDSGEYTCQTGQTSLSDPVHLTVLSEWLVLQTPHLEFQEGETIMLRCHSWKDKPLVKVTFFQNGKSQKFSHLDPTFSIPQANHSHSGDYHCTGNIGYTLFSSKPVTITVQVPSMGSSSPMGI
Experimental: (§1) Dissociation was performed for 15 minutes. Binding constants were calculated with the global fit averages of the traces using a 1:1 model. […] Kinetic parameters were calculated using Octet software (ForteBio).

[2] = target: T2, FcγRI (human, UniProt P12314 16-288, limits assumed); assay: as above
T2 construct: also called Fc receptor FcγRI
Experimental: as §1

[3] = target: T3, NaPi2b on the cell surface of OVCAR3 human ovarian carcinoma cells (human, UniProt O95436 1-690); assay: flow cytometry on OVCAR3 cells, Alexa Fluor 647 anti-human IgG, median fluorescence, four-parameter fit; mean of 2 experiments
T3 construct: also called sodium-dependent phosphate transport protein 2B; SLC34A2
T3 sequence: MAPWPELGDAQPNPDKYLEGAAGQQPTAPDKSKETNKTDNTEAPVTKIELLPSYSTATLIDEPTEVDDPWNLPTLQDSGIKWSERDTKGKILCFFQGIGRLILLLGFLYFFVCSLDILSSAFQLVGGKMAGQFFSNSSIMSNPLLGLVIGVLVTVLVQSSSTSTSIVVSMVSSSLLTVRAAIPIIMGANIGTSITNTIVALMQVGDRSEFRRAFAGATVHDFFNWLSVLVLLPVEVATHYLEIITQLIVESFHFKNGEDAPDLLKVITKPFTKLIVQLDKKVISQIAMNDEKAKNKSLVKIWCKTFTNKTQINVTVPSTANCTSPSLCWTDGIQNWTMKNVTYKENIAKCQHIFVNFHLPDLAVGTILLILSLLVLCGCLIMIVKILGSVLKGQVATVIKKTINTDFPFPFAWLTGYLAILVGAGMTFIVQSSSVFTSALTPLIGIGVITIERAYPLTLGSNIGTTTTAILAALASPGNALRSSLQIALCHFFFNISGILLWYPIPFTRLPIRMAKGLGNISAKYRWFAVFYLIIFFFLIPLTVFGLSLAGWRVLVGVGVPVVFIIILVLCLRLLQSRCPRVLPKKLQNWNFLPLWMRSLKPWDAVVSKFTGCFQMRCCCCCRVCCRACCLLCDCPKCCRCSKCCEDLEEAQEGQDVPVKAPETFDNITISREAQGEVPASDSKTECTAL
Experimental: The detached cells were triturated in media, and plated in 96 well U-bottom plates, at a density of 50,000 cells in medium (75 μL). […] The cells were washed with ice cold PBS (3×), and resuspended in ice cold PBS with 1% paraformaldehyde (100 L). The fluorescence per cell was determined by analyzing 5,000 cells for each treatment on the flow cytometer. The median fluorescence value for each treatment was plotted, and EC₅₀ values were calculated with Graphpad Prism software by four-parameter curve fitting.

[4] = target: T4, Biotinylated NaPi2b-derived peptide (QINVTVPSTANCTSPSLCWTDGIQNWTMKN-biotin; Genscript) (C-terminal biotin); assay: BLI (Octet), biotinylated peptide on streptavidin sensors, 25 C; mean of 4 experiments
T4 construct: also called NaPi2b-derived peptide antigen; immobilized NaPi2b-derived peptide
T4 peptide: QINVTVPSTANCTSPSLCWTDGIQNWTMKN
Experimental: Biotinylated NaPi2b-derived peptide ([…]-biotin; Genscript) was immobilized to streptavidin octet sensors in kinetics buffer (10×). Sensors were then blocked in kinetics buffer (10×) with biocytin (50 μg/mL).

[5] = target: FcγRIIIA (V176) (human, UniProt P08637 17-208, limits assumed); assay: BLI (Octet QKe), test article on anti-human Fab-CH1 (FAB2G) sensors, receptor in solution, 25 C, 1:1 global fit; mean of 2 experiments
Experimental: as §1

[6] = target: T5, human FcRn protein (Immunitrack) (human, UniProt P55899 24-297; P61769 21-119, limits assumed); assay: BLI (Octet QKe), test article on anti-human Fab-CH1 (FAB2G) sensors, FcRn in solution, pH 6.0, 1:1 global fit; mean of 2 experiments
T5 construct: also called FcRn receptor
Experimental: as §1
(§2) After association, sensors were washed for 5 minutes in FcRn binding buffer (Boston Bioproducts; diluted to 100 mM NaH₂PO₄, 0.05% Tween 20, pH 6.0). Association and dissociation steps were performed in FcRn binding buffer. Association measurements to FcRn protein (Immunitrack) was measured at 7 concentrations (from 1 μM to […], 2-fold serial dilutions) for 5 minutes. Dissociation was performed for 15 minutes. Binding constants were calculated with the global fit averages of the traces using a 1:1 model.

[7] = target: T6, NaPi2b-derived peptide from human ([Cyc(12,18)]Ac-QINVTVPSTANCTSPSLCWTDGIQNWTMKN-amide) (human, [Cyc(12,18)] cyclisation between residues 12 and 18; N-terminal acetyl (Ac-); C-terminal amide); assay: ELISA, cyclic peptide coated on plate; mean of 2 experiments
T6 peptide: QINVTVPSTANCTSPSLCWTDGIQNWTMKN

[8] = target: T7, NaPi2b-derived peptide from cynolmogus monkey ([Cyc(12,18)]Ac-QMNVTVPSMANCTSPSLCWTDGIQIWTMKN-amide) (cynomolgus monkey, [Cyc(12,18)] cyclisation between residues 12 and 18; N-terminal acetyl (Ac-); C-terminal amide); assay: as above
T7 peptide: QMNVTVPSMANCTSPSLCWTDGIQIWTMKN

[9] = target: T8, NaPi2b-derived peptide from mouse ([Cyc(12,18)]Ac-EMNVTVPSTDNCTSPSYCWTDGIQTWTIQN-amide) (mouse, [Cyc(12,18)] cyclisation between residues 12 and 18; N-terminal acetyl (Ac-); C-terminal amide); assay: as above
T8 peptide: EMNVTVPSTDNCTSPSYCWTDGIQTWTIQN

[10] = target: T9, NaPi2b-derived peptide from rat ([Cyc(12,18)]Ac-EENVTVPSPDNCTSPSYCWTDGIQTWTIQN-amide) (rat, [Cyc(12,18)] cyclisation between residues 12 and 18; N-terminal acetyl (Ac-); C-terminal amide); assay: as above
T9 peptide: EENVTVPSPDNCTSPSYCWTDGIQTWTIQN

[11] = target: T10, Human NaPi2b-derived peptide (QINVTVPSTANCTSPSLCWTDGIQNWTMKN) (human); assay: ELISA, peptide coated on plate, anti-human IgG-HRP, four-parameter fit; mean of 2 experiments
T10 construct: no modification is printed there; also called NaPi2b peptide
T10 peptide: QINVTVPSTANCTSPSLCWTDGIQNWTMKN
Experimental: (§3) Human NaPi2b-derived peptide ([sequence]) was coated onto the surface of each well of a 96-well plate by incubation with the peptide (1 μg/mL in PBS), overnight at +4° C. The wells were then blocked by incubation with BSA (3% in PBS, containing 0.1% Tween 20 (PBST)) for 1 hour at room temperature. […] The unbound test article was removed by washing with PBST (3×). A secondary anti-human IgG conjugated to HRP (0.16 μg/mL in PBST) was incubated in each well for 1 hour. The unbound secondary antibody was removed by washing with PBST (3×). The HRP substrate, TMB, was added to each well and incubated until a blue color was visible. The reaction was quenched by the addition of sulfuric acid (0.2 N, 100 μL). […] The values were plotted using GraphPad Prism software. EC₅₀ values were determined by four-parameter curve fitting.

[12] = target: T10, Human NaPi2b-derived peptide …; assay: ELISA, peptide coated on plate, anti-human IgG-HRP, four-parameter fit; mean of 3 experiments
Experimental: as §3

[13] = target: T1, FcγRIIA (H167); assay: BLI (Octet QKe), test article on anti-human Fab-CH1 (FAB2G) sensors, receptor in solution, 25 C, 1:1 global fit; mean of 2 experiments
Experimental: as §1

[14] = target: T2, FcγRI; assay: as above
Experimental: as §1

[15] = target: T5, human FcRn protein (Immunitrack); assay: BLI (Octet QKe), test article on anti-human Fab-CH1 (FAB2G) sensors, FcRn in solution, pH 6.0, 1:1 global fit; mean of 5 experiments
Experimental: as §1, §2

Sequence of FcγRIIIA (V176) (P08637 17-208 F176V limits assumed): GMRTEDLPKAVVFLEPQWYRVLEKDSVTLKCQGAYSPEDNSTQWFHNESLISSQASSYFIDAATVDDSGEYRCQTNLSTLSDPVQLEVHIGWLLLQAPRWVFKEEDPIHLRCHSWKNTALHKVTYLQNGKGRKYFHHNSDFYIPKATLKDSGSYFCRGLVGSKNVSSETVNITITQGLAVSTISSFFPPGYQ
T2 sequence (P12314 16-288 limits assumed): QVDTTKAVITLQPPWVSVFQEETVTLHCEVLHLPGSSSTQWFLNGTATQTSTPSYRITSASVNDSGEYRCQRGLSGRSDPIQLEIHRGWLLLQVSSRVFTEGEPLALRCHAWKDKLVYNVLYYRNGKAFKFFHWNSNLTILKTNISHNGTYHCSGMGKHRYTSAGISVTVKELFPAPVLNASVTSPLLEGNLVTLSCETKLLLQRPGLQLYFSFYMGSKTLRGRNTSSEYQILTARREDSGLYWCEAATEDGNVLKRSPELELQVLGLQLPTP
T5 sequence (P55899 24-297 limits assumed, chain 1 of 2): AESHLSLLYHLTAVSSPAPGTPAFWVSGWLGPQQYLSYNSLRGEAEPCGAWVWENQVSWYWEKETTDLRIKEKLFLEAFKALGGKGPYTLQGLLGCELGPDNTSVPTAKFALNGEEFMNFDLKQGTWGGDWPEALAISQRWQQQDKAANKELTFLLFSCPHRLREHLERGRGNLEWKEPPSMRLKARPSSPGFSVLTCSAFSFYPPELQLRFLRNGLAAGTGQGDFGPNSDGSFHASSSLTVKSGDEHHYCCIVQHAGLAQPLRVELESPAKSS
T5 sequence (P61769 21-119 limits assumed, chain 2 of 2): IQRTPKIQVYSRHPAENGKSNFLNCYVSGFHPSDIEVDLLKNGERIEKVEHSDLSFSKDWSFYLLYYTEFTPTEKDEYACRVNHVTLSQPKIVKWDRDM

B1: XMT-1535 (anti-NaPi2b antibody) (antibody, human IgG1, kappa)
heavy: not shown
light: DIQMTQSPSSLSASVGDRVTITCSASQDIGNFLNWYQQKPGKTVKVLIYYTSSLYSGVPSRFSGSGSGTDYTLTISSLQPEDFATYYCQQYSKLPLTFGQGTKLELKRRTVAAPSVFIFPPSDEQLKSGTASVVCLLNNFYPREAKVQWKVDNALQSGNSQESVTEQDSKDSTYSLSSTLTLSKADYEKHKVYACEVTHQGLSSPVTKSFNRGEC
notes: Unconjugated IgG1 antibody
Kd [1]: 1740 nM
koff [1]: 0.308 s⁻¹
kon [1]: 175000 M⁻¹ s⁻¹
Kd [2]: 0.15 nM
koff [2]: 0.000192 s⁻¹
kon [2]: 1.28e+06 M⁻¹ s⁻¹
EC50 [3]: 11.2 nM
Kd [4]: 0.0729 nM
koff [4]: 1.27e-05 s⁻¹
kon [4]: 170000 M⁻¹ s⁻¹
Kd [5]: 641 nM
koff [5]: 0.146 s⁻¹
kon [5]: 216000 M⁻¹ s⁻¹
Kd [6]: 2.76 nM
koff [6]: 0.000448 s⁻¹
kon [6]: 160000 M⁻¹ s⁻¹
EC50 [7]: 4.43 nM
EC50 [8]: 4.04 nM
EC50 [9]: 2.77 nM
EC50 [10]: 4.71 nM
EC50 [11]: 1.77 nM

B2: Conjugate 11 (XMT-1535 stochastic conjugate) (antibody, human IgG1, kappa)
heavy: not shown
light: DIQMTQSPSSLSASVGDRVTITCSASQDIGNFLNWYQQKPGKTVKVLIYYTSSLYSGVPSRFSGSGSGTDYTLTISSLQPEDFATYYCQQYSKLPLTFGQGTKLELKRRTVAAPSVFIFPPSDEQLKSGTASVVCLLNNFYPREAKVQWKVDNALQSGNSQESVTEQDSKDSTYSLSSTLTLSKADYEKHKVYACEVTHQGLSSPVTKSFNRGEC
modifications: maleimido scaffold of Scaffold 6 (AF-HPA payload) on cysteines freed by TCEP reduction; stochastic, positions not given
notes: DAR 6.5
EC50 [12]: 1.05 nM
EC50 [3]: 6.56 nM
Kd [4]: 0.0813 nM
koff [4]: 1.37e-05 s⁻¹
kon [4]: 165000 M⁻¹ s⁻¹
Kd [13]: 1250 nM
koff [13]: 0.345 s⁻¹
kon [13]: 273000 M⁻¹ s⁻¹
Kd [5]: 270 nM
koff [5]: 0.0671 s⁻¹
kon [5]: 270000 M⁻¹ s⁻¹
Kd [14]: 0.166 nM
koff [14]: 0.000209 s⁻¹
kon [14]: 1.26e+06 M⁻¹ s⁻¹
EC50 [7]: 5 nM
EC50 [8]: 4.19 nM
EC50 [9]: 2.26 nM
EC50 [10]: 3.72 nM
Kd [15]: 4.96 nM
koff [15]: 0.00055 s⁻¹
kon [15]: 126000 M⁻¹ s⁻¹

B3: Conjugate 7 (XMT-1535 drug conjugate of Scaffold 6) (antibody, human IgG1, kappa)
heavy: not shown
light: DIQMTQSPSSLSASVGDRVTITCSASQDIGNFLNWYQQKPGKTVKVLIYYTSSLYSGVPSRFSGSGSGTDYTLTISSLQPEDFATYYCQQYSKLPLTFGQGTKLELKRRTVAAPSVFIFPPSDEQLKSGTASVVCLLNNFYPREAKVQWKVDNALQSGNSQESVTEQDSKDSTYSLSSTLTLSKADYEKHKVYACEVTHQGLSSPVTKSFNRGEC
modifications: Scaffold 6 linker-drug (AF-HPA payload) attached by click chemistry to the azido-modified GlcNAc(Fuc)-GalNAc glycan on the asparagine at N297 (N300 of SEQ ID NO: 1 according to claim 40)
notes: The glycan was trimmed with Endo SH and extended with an azido sugar; the text prints 6.6
EC50 [12]: 1.44 nM
Kd [2]: 3.05 nM
koff [2]: 0.00373 s⁻¹
kon [2]: 1.13e+06 M⁻¹ s⁻¹
EC50 [3]: 8.15 nM
Kd [4]: 0.0828 nM
koff [4]: 1.81e-05 s⁻¹
kon [4]: 200000 M⁻¹ s⁻¹
EC50 [7]: 3.7 nM
EC50 [8]: 3.83 nM
EC50 [9]: 1.79 nM
EC50 [10]: 2.48 nM
Kd [15]: 5.88 nM
koff [15]: 0.000481 s⁻¹
kon [15]: 86100 M⁻¹ s⁻¹
